The conditions of this series: Hordeum vulgare; pH 6.3; Thermal; Fluorescence; phosphate 10 mM; reversible: yes; whole UniProt chain shown.

One may read the Tm as the temperature at the midpoint of the melting transition.

B1: Subtilisin-chymotrypsin inhibitor-2A wild type, P01053 (protein)
chain: MSSVEKKPEGVNTGAGDRHNLKTEWPELVGKSVEEAKKVILQDKPEAQIIVLPVGTIVTMEYRIDRVRLFVDKLDNIAQVPRVG
Take B1: the Tm was determined as 46.6 °C and the “unfolding enthalpy (van 't Hoff)” value was 34.1 kcal/mol.
